Entries after “also recorded” stand apart in the source; their conditions may differ.
Legend:
Experiment in all cases: in situ proximity ligation assay
Conditions in all cases: reference: wild-type R-region
[1] = target: CFTR (split-CFTR: front half, R-region and back half as separate polypeptides) back half, 837-1480 (UniProt P13569)
[2] = target: CFTR (split-CFTR: front half, R-region and back half as separate polypeptides) front half, 1-634 (UniProt P13569)
[3] = target: CFTR (split-CFTR: front half, R-region and back half as separate polypeptides) front half, 1-634 (UniProt P13569); remark: listed apart in the source

CFTR (split-CFTR: front half, R-region and back half as separate polypeptides) R-region, 635-836 (from UniProt P13569) S686D, sequence (P13569 1-634, stated change not applied): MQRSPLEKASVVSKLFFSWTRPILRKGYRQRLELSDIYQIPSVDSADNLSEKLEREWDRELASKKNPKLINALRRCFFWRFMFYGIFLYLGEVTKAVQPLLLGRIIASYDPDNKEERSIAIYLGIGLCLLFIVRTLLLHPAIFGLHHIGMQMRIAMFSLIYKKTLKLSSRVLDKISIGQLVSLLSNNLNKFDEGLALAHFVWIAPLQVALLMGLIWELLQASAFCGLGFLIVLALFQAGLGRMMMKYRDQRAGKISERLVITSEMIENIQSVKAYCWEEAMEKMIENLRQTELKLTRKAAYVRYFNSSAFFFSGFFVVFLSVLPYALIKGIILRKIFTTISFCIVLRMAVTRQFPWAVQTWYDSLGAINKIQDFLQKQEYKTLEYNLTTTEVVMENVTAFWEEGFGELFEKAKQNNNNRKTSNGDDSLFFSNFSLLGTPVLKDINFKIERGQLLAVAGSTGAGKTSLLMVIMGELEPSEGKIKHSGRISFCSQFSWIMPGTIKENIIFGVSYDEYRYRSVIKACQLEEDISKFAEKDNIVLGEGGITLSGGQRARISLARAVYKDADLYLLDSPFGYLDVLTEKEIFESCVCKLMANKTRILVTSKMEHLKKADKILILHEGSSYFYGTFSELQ

other: PLA CTCF ([1]; sites S641,T682)	other: PLA CTCF ([3]; sites S641,T682)	other: PLA CTCF ([1]; sites S686)	other: PLA CTCF ([3]; sites S686)	Substance	other: PLA CTCF ([2]; sites S641,T682)	other: PLA CTCF ([2]; sites S686)
stronger; reference 3.41 ± 0.20	stronger; reference 3.29 ± 0.24			CFTR (split-CFTR: front half, R-region and back half as separate polypeptides) R-region, 635-836 (from UniProt P13569) S641A/T682A	weaker; reference 3.90 ± 0.18; also recorded: stronger; reference 7.91 ± 0.21	
		weaker; reference 3.41 ± 0.20	weaker; reference 3.29 ± 0.24	CFTR (split-CFTR: front half, R-region and back half as separate polypeptides) R-region, 635-836 (from UniProt P13569) S686A		stronger; reference 3.90 ± 0.18; also recorded: same; reference 5.67 ± 0.55; also recorded: weaker; reference 7.91 ± 0.21
			stronger; reference 3.29 ± 0.24	CFTR (split-CFTR: front half, R-region and back half as separate polypeptides) R-region, 635-836 (from UniProt P13569) S686D		same; reference 5.67 ± 0.55; also recorded: weaker; reference 7.91 ± 0.21
